The data set concerns the molecule itself. The experiment in a line: 19F NMR; 4-F-Phe labelled hXCL1(1-72) at 100 uM in 20 mM NaPO4, 50 mM NaCl, pH 6.5, 35 °C; populations of the dimer fold and the monomeric chemokine fold.

B1: Human XCL1(1-72) (domain or fragment, UniProt P47992 22-93, looked up)
chain: VGSEVSDKRTCVSLTTQRLPVSRIKTYTITEGSLRAVIFITKRGLKVCADPQATWVRDVVRSMDRKSNTRNN
modifications: 4-fluorophenylalanine, presumed at F39 (single fluorine atom verified by electrospray mass spectrometry)
notes: XCL1, human, residues 1-72, lacks the disordered C-terminal tail (residues 73-93); The protein exchanges between a monomeric chemokine fold and a dimeric beta-sheet fold; also called hXCL1(1-72); wildtype XCL1
With B1, the “percent of the protein in the dimer fold” value was found to be 77%.

(Values after article doi:10.64898/2025.12.30.697132, “Explaining how mutations affect AlphaFold predictions” (bioRxiv, 2025).)
